Assay [1] deals with T1, PEN-2 (human, UniProt Q9NZ42 1-101).
T1 construct: Subunit of the γ-secretase complex in HeLa membrane
Kind of assay: photoaffinity labeling of HeLa membrane, streptavidin capture, western blot.
Text: (§1) After the photolyzed membranes were solubilized, biotinylated proteins were captured, eluted and analyzed by western blotting with antibodies against biotin, PS1, nicastrin, PEN-2 and APH-1.

Assay [2] concerns the target T2, APH-1a (human, UniProt Q96BI3 1-265, limits assumed).
T2 construct: Subunit of the γ-secretase complex in HeLa membrane
The assay is described as above.
Text: as §1

Where no end group is shown, it is not given here. [ ]: non-standard residue; d: D form. Bpa = N[C@@H](Cc1ccc(C(=O)c2ccccc2)cc1)C(=O)O

B1: Aβ17-23BPA^20-biotin (peptide)
peptide: LVF[Bpa]AED-biotin
notes: used at 300 nM; also called biotinylated photoreactive peptide Aβ17-23; photoactive peptide
For B1, the binding result in assay [1] and in assay [2] was “no binding (tested: 300 nM)” throughout.
